T1: FliR-His (Salmonella enterica serovar Typhimurium, UniProt P54702 1-264)
T1 construct: FliR of Salmonella enterica serovar Typhimurium; One FliR subunit stands in the FliP5-FliQ4-FliR1 complex; source: Salmonella SJW1368 carrying pMKM10001 (pTrcCES3/ FliP + FliQ + FliR-His); purified as FliPQR-His complex (LMNG, Ni-NTA, SEC), reconstituted in peptidisc; not shown: His tag (10 residues), C-terminal, kept
T1 sequence: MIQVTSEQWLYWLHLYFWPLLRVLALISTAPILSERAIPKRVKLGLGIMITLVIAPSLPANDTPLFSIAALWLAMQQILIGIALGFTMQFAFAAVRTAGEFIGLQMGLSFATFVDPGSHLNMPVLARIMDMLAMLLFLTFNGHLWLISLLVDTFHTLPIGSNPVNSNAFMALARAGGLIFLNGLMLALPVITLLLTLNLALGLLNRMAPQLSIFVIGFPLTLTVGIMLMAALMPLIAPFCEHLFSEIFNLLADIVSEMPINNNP

B1: FliP (natural protein)
chain: QLPGLISQPLAGGGQSWSLSVQTLVFITSLTFLPAILLMMTSFTRIIIVFGLLRNALGTPSAPPNQVLLGLALFLTFFIMSPVIDKIYVDAYQPFSEQKISMQEALDKGAQPLRAFMLRQTREADLALFARLANSGPLQGPEAVPMRILLPAYVTSELKTAFQIGFTIFIPFLIIDLVIASVLMALGMMMVPPATIALPFKLMLFVLVDGWQLLMGSLAQSFYS
notes: FliP of Salmonella enterica serovar Typhimurium, mature protein after cleavage of the signal peptide (residues 1-21; cleavage between Ala-21 and Gln-22); residue numbers count on the precursor; Five FliP subunits stand in the FliP5-FliQ4-FliR1 complex; also called mature FliP; FliP^A (Mol-A); source: Salmonella SJW1368 carrying pMKM10001 (pTrcCES3/ FliP + FliQ + FliR-His); purified as FliPQR-His …
B2: FliQ (natural protein)
chain: MTPESVMMMGTEAMKVALALAAPLLLVALITGLIISILQAATQINEMTLSFIPKIVAVFIAIIVAGPWMLNLLLDYVRTLFSNLPYIIG
notes: FliQ of Salmonella enterica serovar Typhimurium; Four FliQ subunits stand in the FliP5-FliQ4-FliR1 complex; source: Salmonella SJW1368 carrying pMKM10001 (pTrcCES3/ FliP + FliQ + FliR-His); purified as FliPQR-His complex (LMNG, Ni-NTA, SEC), reconstituted in peptidisc

Assay in all cases: cryo-EM structure; FliPQR-His complex purified from Salmonella membranes and reconstituted in a peptidisc, detergent-free (20 mM Tris-HCl pH 8.0, 150 mM NaCl), fluorinated Fos-Choline 0, 1.0 or 2.0 mM added before grid preparation; single-particle analysis, C1 symmetry, 3.0 Å; closed form
For one series, the target named is T1, FliR-His. The note with it: both partners purified.
Series [1] deals with the molecule itself.
In the series “FliP” the target is B1. The conditions noted are these: both partners purified.

A word on the stoichiometry N: it is a count of units in the complex or per binding partner.

As to B1, the binding result in the series with FliR-His is listed as “binds”. In series [1], the “stoichiometry N” value came to 5 subunits.

Regarding B2, the binding result in the series with FliP and in the series with FliR-His was “binds” each time.
